Laboratory results reported in patent US20200246419A1.

Biological target: CD36 (human) (UniProt P16671)
Assay: cell-based or functional assay

Sequence of CD36 (human) (P16671 2-472): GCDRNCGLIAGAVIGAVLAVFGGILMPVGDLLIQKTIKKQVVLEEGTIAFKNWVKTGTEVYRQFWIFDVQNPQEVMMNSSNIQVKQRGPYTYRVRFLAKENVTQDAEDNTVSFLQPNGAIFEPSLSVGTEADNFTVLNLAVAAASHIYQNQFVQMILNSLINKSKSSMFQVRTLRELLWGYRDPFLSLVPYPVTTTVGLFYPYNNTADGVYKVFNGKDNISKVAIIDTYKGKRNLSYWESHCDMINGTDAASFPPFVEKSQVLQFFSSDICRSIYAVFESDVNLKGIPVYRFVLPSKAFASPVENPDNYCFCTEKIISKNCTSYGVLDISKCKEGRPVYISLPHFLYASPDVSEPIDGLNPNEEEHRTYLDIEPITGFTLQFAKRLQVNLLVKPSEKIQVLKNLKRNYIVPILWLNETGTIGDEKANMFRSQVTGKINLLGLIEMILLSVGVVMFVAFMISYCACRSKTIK

total cell number (Wst-1 assay) of patient-derived ovarian cancer cell lines treated with rhTsp-1 for up to 72 hours: < 50%
Substance: recombinant human Tsp-1 (from UniProt P07996 19-1170) (ligand)
